From US7919091B2, “Lipolysis stimulated receptor (LSR) specific antibodies” (Serono Genetics Institute S.A., priority 1997, dated 2011)
Each block holds one molecule with its values, some of them ahead of it.

What was measured:
[1] = Food intake in ob/ob and db/db mice under AdipoQ; assay type: in vivo; conditions: ob/ob and db/db obese mice, 100 μg daily for 5 days
Method: Recombinant AdipoQ protein (100 μg) or PBS alone were injected daily for 5 days through the caudal vein of ob/ob or db/db mice kept in a metabolic cage. The mice are weighed each day and the quantity of food consumed was also measured. The results correspond to a mean food intake and a standard deviation for 4 mice in each group.

LSR = target: T1, LSR (Rattus norvegicus, UniProt Q9WU74); experiment: Effect of AdipoQ on LSR activity in primary culture of rat hepatocytes; assay type: cell-based; conditions: 25 ng/ml AdipoQ, in the presence of oleate
T1 construct: from tissue; host or cells: rat liver plasma membranes / solubilized rat liver membrane proteins
T1 sequence (Q9WU74 36-593): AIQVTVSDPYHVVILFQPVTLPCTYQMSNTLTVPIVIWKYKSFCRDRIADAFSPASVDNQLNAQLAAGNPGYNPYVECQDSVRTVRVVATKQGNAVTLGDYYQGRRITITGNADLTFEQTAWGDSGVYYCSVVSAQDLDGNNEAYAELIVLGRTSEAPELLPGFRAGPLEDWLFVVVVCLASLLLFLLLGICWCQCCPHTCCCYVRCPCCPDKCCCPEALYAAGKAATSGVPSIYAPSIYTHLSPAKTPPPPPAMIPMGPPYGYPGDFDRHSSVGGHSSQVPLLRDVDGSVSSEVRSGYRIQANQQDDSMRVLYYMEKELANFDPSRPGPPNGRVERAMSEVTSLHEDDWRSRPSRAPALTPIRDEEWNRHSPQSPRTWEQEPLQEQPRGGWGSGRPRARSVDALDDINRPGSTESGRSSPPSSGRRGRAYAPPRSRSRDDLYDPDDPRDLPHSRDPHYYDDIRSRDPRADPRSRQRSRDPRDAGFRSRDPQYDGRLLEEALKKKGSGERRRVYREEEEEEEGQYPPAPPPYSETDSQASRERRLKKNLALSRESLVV
T1 sequence (Q9WU74 36-525 isoform Q9WU74-3 limits assumed): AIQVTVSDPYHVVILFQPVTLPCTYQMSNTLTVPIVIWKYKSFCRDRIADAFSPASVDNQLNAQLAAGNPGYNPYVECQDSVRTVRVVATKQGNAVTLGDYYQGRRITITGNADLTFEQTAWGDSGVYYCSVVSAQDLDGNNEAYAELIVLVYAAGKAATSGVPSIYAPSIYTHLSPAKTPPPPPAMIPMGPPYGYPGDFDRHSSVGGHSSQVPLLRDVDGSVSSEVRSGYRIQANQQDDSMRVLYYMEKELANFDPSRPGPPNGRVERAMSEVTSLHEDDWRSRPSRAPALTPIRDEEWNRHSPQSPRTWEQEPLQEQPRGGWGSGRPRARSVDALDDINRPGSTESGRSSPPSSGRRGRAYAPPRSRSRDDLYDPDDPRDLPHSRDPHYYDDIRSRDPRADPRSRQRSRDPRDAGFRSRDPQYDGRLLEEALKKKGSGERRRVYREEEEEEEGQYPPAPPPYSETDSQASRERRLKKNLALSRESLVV
Method: Primary cultures of rat hepatocytes were prepared and distributed into 6-well plates (9000,000 cells/well). After 48 h, the cells were washed once with PBS (2 ml/well) and incubated for 30 min at 37° C. with 20 ng/ml of recombinant murine leptin. The cells were then incubated for 4 h at 37° C. with increasing concentrations of recombinant murine AdipoQ proteins and 20 μg/ml ^125I-LDL in the presence or in the absence of 0.5 mM oleate. The binding, internalization and degradation of lipoproteins were measured as indicated in Example 1.

[2] = Change in weight and plasma triglycerides in rats under AdipoQ infusion; assay type: in vivo, rat; conditions: 3-day ip infusion
Method: Osmotic pumps were surgically inserted into the abdominal cavities of 12 Sprague-Dawley male rats of 400-450 g. The osmotic pumps contained either 2 ml of PBS (phosphate buffered saline), pH 7.4 (control 6 rats), or 2 ml of recombinant AdipoQ protein (5 mg/ml PBS, 6 rats). These pumps were designed to deliver 10 μl/h (50 μg AdipoQ/h). The animals are weighed and individually housed in metabolic cages. 3 animals in each group are subjected ad libitum either to a normal diet or to a fatty diet (day 0). The fatty diet consists of a normal diet supplemented with 2% (w/w) cholesterol, 10% (w/w) saturated fatty acid in the form of vegetaline, [lacuna] % (w/w) sunflower oil and 15% (w/w) sucrose. On day 3, the animals are weighed and blood samples are obtained from the caudal vein. The quantity of plasma triglycerides was measured using an enzymatic kit.

[3] = Postprandial lipemic response in rats after AdipoQ injection; assay type: in vivo, rat; conditions: high-fat meal, 1 mg AdipoQ i.v.
Method: Male Sprague-Dawley rats (400-450 g), starved since the day before, were force-fed with a meal which was very high in fat (t=0) (60% fatty acid of which 37% saturated, 27% monounsaturated and 36% polyunsaturated, 20% protein and 20% carbohydrate, the total providing 56 kcal/kg of body weight) and received immediately afterwards an intravenous injection (femoral vein) of either 300 μl of PBS alone or of the same volume containing 1 mg of mouse recombinant AdipoQ protein. Blood samples were collected at various times (0, 2, 4 and 6 h). The quantity of plasma triglycerides was measured using an enzymatic kit. The results are presented as mean values and standard deviations on 3 animals.

[4] = Postprandial lipemic response in mice after a high-fat meal; assay type: in vivo; conditions: ob/ob mice, 2.5 mg lactoferrin with 0.5 μg leptin i.v.
Method: Control, ob/ob and db/db mice, starved since the day before, are force-fed with a meal which is very high in fat [60% fat (37% saturated, 27% monounsaturated and 36% polyunsaturated fatty acids), 20% protein and 20% carbohydrate] providing 56 kcal of energy/kg of the weight of the animal. Immediately after the meal (time=0 hour), the mice are injected intravenously with 200 μl of physiological saline solution. At various times, 20 μl of blood are collected via the caudal vein in tubes containing 90 μg of disodium EDTA, and after separating the plasma by centrifugation, the plasma concentration of triglyceridemia is determined with the aid of an enzymatic assay kit. Each point on the curves presented corresponds to the mean with standard deviation obtained for 3 measurements per animal and for 3 different animals.
The procedure is the same as above, except that immediately after the meal (time=0 hour), the mice are injected intravenously with either 200 μl of physiological saline solution, or 200 μl of the same solution containing 50 μg of murine recombinant leptin.
ob/ob mice, starved since the day before, are force-fed with a meal identical to that described above. […] Blood is collected between 2 and 3 hours after the meal and the plasma concentration of triglycerides (TG) is measured. […]

LSR activity (LSR): increases
B1: AdipoQ: mouse recombinant AdipoQ protein with hexahistidine peptide, expressed in E. coli; homologue of complement C1q (protein)
chain: SHAEDDVTTTEELAPALVPPPKGTCAGWMAGIPGHPGHNGTPGRDGRDGTPGEKGEKGDAGLLGPKGETGDVGMTGAEGPRGFPGTPGRKGEPGEAAYVYRSAFSVGLETRVTVPNVPIRFTKIFYNQQNHYDGSTGKFYCNIPGLYYFSYHITVYMKDVKVSLFKKDKAVLFTYDQYQEKNVDQASGSVLLHLEVGDQVWLQVYGDGDHNGLYADNVNDSTFTGFLLYHDTN
modifications: left off: small tags and cut ends
notes: mouse recombinant AdipoQ protein with hexahistidine peptide, expressed in E. coli; homologue of complement C1q
food intake [1]: reduces
level of plasma triglycerides [2]: reduced
weight ([2]; normal or fatty diet): loss in weight
postprandial lipemic response [3]: massively reduce

B2: lactoferrin: human lactoferrin (Serva), blocks the activity of LSR (protein, UniProt P02788 20-710, looked up)
Lactotransferrin: GRRRSVQWCAVSQPEATKCFQWQRNMRKVRGPPVSCIKRDSPIQCIQAIAENRADAVTLDGGFIYEAGLAPYKLRPVAAEVYGTERQPRTHYYAVAVVKKGGSFQLNELQGLKSCHTGLRRTAGWNVPIGTLRPFLNWTGPPEPIEAAVARFFSASCVPGADKGQFPNLCRLCAGTGENKCAFSSQEPYFSYSGAFKCLRDGAGDVAFIRESTVFEDLSDEAERDEYELLCPDNTRKPVDKFKDCHLARVPSHAVVARSVNGKEDAIWNLLRQAQEKFGKDKSPKFQLFGSPSGQKDLLFKDSAIGFSRVPPRIDSGLYLGSGYFTAIQNLRKSEEEVAARRARVVWCAVGEQELRKCNQWSGLSEGSVTCSSASTTEDCIALVLKGEADAMSLDGGYVYTAGKCGLVPVLAENYKSQQSSDPDPNCVDRPVEGYLAVAVVRRSDTSLTWNSVKGKKSCHTAVDRTAGWNIPMGLLFNQTGSCKFDEYFSQSCAPGSDPRSNLCALCIGDEQGENKCVPNSNERYYGYTGAFRCLAENAGDVAFVKDVTVLQNTDGNNNEAWAKDLKLADFALLCLDGKRKPVTEARSCHLAMAPNHAVVSRMDKVERLKQVLLHQQAKFGRNGSDCPDKFCLFQSETKNLLFNDNTECLARLHGKTTYEKYLGPQYVAGITNLKKCSTSPLLEACEFLRK
reduction in the lipemic response induced by leptin [4]: suppressed
